Experimental data taken from patent US20240270846A1 (published 2024).
Numbering of substitutions follows the chain as printed. Numbers in names are those of the source.

B1: CE115HA000 H chain altered form H35A (antibody, human IgG1, kappa, L234A L235A, N297A, name in Kabat numbering)
heavy: QVQLVESGGGVVQPGRSLRLSCAASGFTFSNAWMAWVRQAPGKGLEWVAQIKAKSNNYATYYAESVKGRFTISRDDSKNSLYLQMNSLKTEDTAVYYCRYVHYGAYYGVDAWGQGTTVTVSSASTKGPSVFPLAPSSKSTSGGTAALGCLVKDYFPEPVTVSWNSGALTSGVHTFPAVLQSSGLYSLSSVVTVPSSSLGTQTYICNVNHKPSNTKVDKKVEPKSCDKTHTCPPCPAPEAAGGPSVFLFPPKPKDTLMISRTPEVTCVVVDVSHEDPEVKFNWYVDGVEVHNAKTKPREEQYASTYRVVSVLTVLHQDWLNGKEYKCKVSNKALPAPIEKTISKAKGQPREPQVYTLPPSRCELTKNQVSLSCAVKGFYPSDIAVEWESNGQPENNYKTTPPVLDSDGSFFLVSKLTVDKSRWQQGNVFSCSVMHEALHNHYTQKSLSLSPDYKDDDDK
chain: EPKSSDKTHTCPPCPAPELLGGPSVFLFPPKPKDTLMISRTPEVTCVVVDVSHEDPEVKFNWYVDGVEVHNAKTKPREEQYNSTYRVVSVLTVLHQDWLNGKEYKCKVSNKALPAPIEKTISKAKGQPREPQVCTLPPSRDELTKNQVSLWCLVKGFYPSDIAVEWESNGQPENNYKTTPPVLDSDGSFFLYSKLTVDKSRWQQGNVFSCSVMHEALHNRYTQKSLSLSP
light: DIVMTQSPLSLPVTPGEPASISCRSSQSLVHSNRNTYLHWYQQKPGQAPRLLIYKVSNRFSGVPDRFSGSGSGTDFTLKISRVEAEDVGVYYCGQGTQVPYTFGQGTKLEIKRTVAAPSVFIFPPSDEQLKSGTASVVCLLNNFYPREAKVQWKVDNALQSGNSQESVTEQDSKDSTYSLSSTLTLSKADYEKHKVYACEVTHQGLSSPVTKSFNRGEC
notes: one-arm antibody
B2: CE115HA000 H chain altered form A32Y (antibody, human IgG1, kappa, L234A L235A, N297A, name in Kabat numbering)
heavy: B1 heavy with A32Y, A35H
chain: B1 chain
light: B1 light
notes: one-arm antibody
B3: GLS3000 S56D one-arm antibody (H chain CE115HA000) (antibody, human IgG1, kappa, L234A L235A, N297A, name in Kabat numbering)
heavy: B1 heavy with A35H
chain: B1 chain
light: B1 light with S61D
notes: one-arm antibody
B4: GLS3000 V27cS one-arm antibody (H chain CE115HA000) (antibody, human IgG1, kappa, L234A L235A, N297A, name in Kabat numbering)
heavy: B1 heavy with A35H
chain: B1 chain
light: B1 light with V30S
notes: one-arm antibody
B5: GLS3000 Y32D one-arm antibody (H chain CE115HA000) (antibody, human IgG1, kappa, L234A L235A, N297A, name in Kabat numbering)
heavy: B1 heavy with A35H
chain: B1 chain
light: B1 light with Y37D
notes: one-arm antibody
B6: GLS3000 Y32A one-arm antibody (H chain CE115HA000) (antibody, human IgG1, kappa, L234A L235A, N297A, name in Kabat numbering)
heavy: B1 heavy with A35H
chain: B1 chain
light: B1 light with Y37A
notes: one-arm antibody
B7: GLS3000 V27cE one-arm antibody (H chain CE115HA000) (antibody, human IgG1, kappa, L234A L235A, N297A, name in Kabat numbering)
heavy: B1 heavy with A35H
chain: B1 chain
light: B1 light with V30E
notes: one-arm antibody
B8: GLS3000 V27cY one-arm antibody (H chain CE115HA000) (antibody, human IgG1, kappa, L234A L235A, N297A, name in Kabat numbering)
heavy: B1 heavy with A35H
chain: B1 chain
light: B1 light with V30Y
notes: one-arm antibody
B9: GLS3000 V51D one-arm antibody (H chain CE115HA000) (antibody, human IgG1, kappa, L234A L235A, N297A, name in Kabat numbering)
heavy: B1 heavy with A35H
chain: B1 chain
light: B1 light with V56D
notes: one-arm antibody
B10: GLS3000 S27eW one-arm antibody (H chain CE115HA000) (antibody, human IgG1, kappa, L234A L235A, N297A, name in Kabat numbering)
heavy: B1 heavy with A35H
chain: B1 chain
light: B1 light with S32W
notes: one-arm antibody
B11: GLS3000 S27eT one-arm antibody (H chain CE115HA000) (antibody, human IgG1, kappa, L234A L235A, N297A, name in Kabat numbering)
heavy: B1 heavy with A35H
chain: B1 chain
light: B1 light with S32T
notes: one-arm antibody
B12: GLS3000 T31D one-arm antibody (H chain CE115HA000) (antibody, human IgG1, kappa, L234A L235A, N297A, name in Kabat numbering)
heavy: B1 heavy with A35H
chain: B1 chain
light: B1 light with T36D
notes: one-arm antibody
B13: GLS3000 S52D one-arm antibody (H chain CE115HA000) (antibody, human IgG1, kappa, L234A L235A, N297A, name in Kabat numbering)
heavy: B1 heavy with A35H
chain: B1 chain
light: B1 light with S57D
notes: one-arm antibody
B14: GLS3000 S56A one-arm antibody (H chain CE115HA000) (antibody, human IgG1, kappa, L234A L235A, N297A, name in Kabat numbering)
heavy: B1 heavy with A35H
chain: B1 chain
light: B1 light with S61A
notes: one-arm antibody
B15: GLS3000 S52A one-arm antibody (H chain CE115HA000) (antibody, human IgG1, kappa, L234A L235A, N297A, name in Kabat numbering)
heavy: B1 heavy with A35H
chain: B1 chain
light: B1 light with S57A
notes: one-arm antibody
B16: GLS3000 S27eR one-arm antibody (H chain CE115HA000) (antibody, human IgG1, kappa, L234A L235A, N297A, name in Kabat numbering)
heavy: B1 heavy with A35H
chain: B1 chain
light: B1 light with S32R
notes: one-arm antibody
B17: GLS3000 S27eY one-arm antibody (H chain CE115HA000) (antibody, human IgG1, kappa, L234A L235A, N297A, name in Kabat numbering)
heavy: B1 heavy with A35H
chain: B1 chain
light: B1 light with S32Y
notes: one-arm antibody
B18: GLS3000 S27eV one-arm antibody (H chain CE115HA000) (antibody, human IgG1, kappa, L234A L235A, N297A, name in Kabat numbering)
heavy: B1 heavy with A35H
chain: B1 chain
light: B1 light with S32V
notes: one-arm antibody
B19: GLS3000 V27cP one-arm antibody (H chain CE115HA000) (antibody, human IgG1, kappa, L234A L235A, N297A, name in Kabat numbering)
heavy: B1 heavy with A35H
chain: B1 chain
light: B1 light with V30P
notes: one-arm antibody
B20: GLS3000 V27cD one-arm antibody (H chain CE115HA000) (antibody, human IgG1, kappa, L234A L235A, N297A, name in Kabat numbering)
heavy: B1 heavy with A35H
chain: B1 chain
light: B1 light with V30D
notes: one-arm antibody
B21: GLS3000 V27cI one-arm antibody (H chain CE115HA000) (antibody, human IgG1, kappa, L234A L235A, N297A, name in Kabat numbering)
heavy: B1 heavy with A35H
chain: B1 chain
light: B1 light with V30I
notes: one-arm antibody
B22: GLS3000 V27cL one-arm antibody (H chain CE115HA000) (antibody, human IgG1, kappa, L234A L235A, N297A, name in Kabat numbering)
heavy: B1 heavy with A35H
chain: B1 chain
light: B1 light with V30L
notes: one-arm antibody

biological target: T1, CD3 epsilon homodimer protein (UniProt P07766 23-126); test: SPR Biacore T200, CD3 epsilon homodimer on chip, antibody as analyte;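 also: homodimer amine-coupled to a CM4 sensor chip, run at 25 °C in HBS-EP+ buffer, with kinetic parameters derived in Biacore T200 Evaluation Software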
T1 construct: also called CD3 (CD3 epsilon)
T1 sequence (P07766 23-126): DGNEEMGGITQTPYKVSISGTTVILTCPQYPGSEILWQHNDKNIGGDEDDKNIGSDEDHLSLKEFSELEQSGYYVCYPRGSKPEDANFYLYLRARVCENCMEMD

| KD ratio (KD of CE115HA000 / KD of altered form) | Binder |
| --- | --- |
| 25 | B1 |
| 2.11 | B2 |

biological target: T2, CD3 epsilon homodimer protein (UniProt P07766 23-126); test: SPR, CD3e homodimer on chip;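 also: surface plasmon resonance at 25 degrees C, antibodies flowed as analyte over CD3 epsilon homodimer amine-coupled to a CM4 chip, running buffer HBS-EP+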
T2 construct: also called CD3 (CD3 epsilon)
T2 sequence (P07766 23-126): as above

| ratio of amounts bound (altered form / unaltered GLS3000 antibody) | Binder |
| --- | --- |
| 0.77 | B3 |
| 0.51 | B4 |
| 0.23 | B5 |
| 0.24 | B6 |
| 0.61 | B7 |
| 0.77 | B8 |
| 0.33 | B9 |
| 1.55 | B10 |
| 0.97 | B11 |
| 0.23 | B12 |
| 0.63 | B13 |
| 1.16 | B14 |
| 0.93 | B15 |
| 1.58 | B16 |
| 1.2 | B17 |
| 1.08 | B18 |
| 0.3 | B19 |
| 0.32 | B20 |
| 0.96 | B21 |
| 0.84 | B22 |
